Our source for the Kd values is patent US5869641.

pKd: −log10 of the molar value.

The series addresses CD4 (extracellular domain, aa 1-370) (Homo sapiens) (UniProt P01730). Nature of the series: flow. The conditions noted are these: 2'-F on all C and U; +-0.08; multimeric SA-PE complex, 3.2 RNA per SA-PE; L200-CD4 beads, PBS, 2 mM MgCl2, BSA, room temp.

The sequence “GGGAGACAAGAAUAAACGCUCAANNNNNNNNNNNNNNNNNNNNNNNNNNNNNNNNNNNNNNNNUUCGACAGGAGGCUCACAACAGGC [15th round enriched RNA pool]” gave a pKd of 8.82.

A word on the pKd: it is the Kd on a negative log10 scale, so that one unit is a factor of ten. Low values mean a large Kd, high ones a small Kd.
